For 1 substance, TMT signal-to-noise ratio results are on record in patent US20210063414A1, “METHODS FOR PREVENTING AND/OR TREATING BONE LOSS CONDITIONS BY MODULATING IRISIN” (Dana-Farber Cancer Institute, Inc., priority 2018, published 2021).

The experiment deals with T1, MLO-Y4 cell surface proteins (Mus musculus, UniProt P70388).
T1 construct: endogenous in cells; host or cells: MLO-Y4
T1 sequence (P70388 1-1312): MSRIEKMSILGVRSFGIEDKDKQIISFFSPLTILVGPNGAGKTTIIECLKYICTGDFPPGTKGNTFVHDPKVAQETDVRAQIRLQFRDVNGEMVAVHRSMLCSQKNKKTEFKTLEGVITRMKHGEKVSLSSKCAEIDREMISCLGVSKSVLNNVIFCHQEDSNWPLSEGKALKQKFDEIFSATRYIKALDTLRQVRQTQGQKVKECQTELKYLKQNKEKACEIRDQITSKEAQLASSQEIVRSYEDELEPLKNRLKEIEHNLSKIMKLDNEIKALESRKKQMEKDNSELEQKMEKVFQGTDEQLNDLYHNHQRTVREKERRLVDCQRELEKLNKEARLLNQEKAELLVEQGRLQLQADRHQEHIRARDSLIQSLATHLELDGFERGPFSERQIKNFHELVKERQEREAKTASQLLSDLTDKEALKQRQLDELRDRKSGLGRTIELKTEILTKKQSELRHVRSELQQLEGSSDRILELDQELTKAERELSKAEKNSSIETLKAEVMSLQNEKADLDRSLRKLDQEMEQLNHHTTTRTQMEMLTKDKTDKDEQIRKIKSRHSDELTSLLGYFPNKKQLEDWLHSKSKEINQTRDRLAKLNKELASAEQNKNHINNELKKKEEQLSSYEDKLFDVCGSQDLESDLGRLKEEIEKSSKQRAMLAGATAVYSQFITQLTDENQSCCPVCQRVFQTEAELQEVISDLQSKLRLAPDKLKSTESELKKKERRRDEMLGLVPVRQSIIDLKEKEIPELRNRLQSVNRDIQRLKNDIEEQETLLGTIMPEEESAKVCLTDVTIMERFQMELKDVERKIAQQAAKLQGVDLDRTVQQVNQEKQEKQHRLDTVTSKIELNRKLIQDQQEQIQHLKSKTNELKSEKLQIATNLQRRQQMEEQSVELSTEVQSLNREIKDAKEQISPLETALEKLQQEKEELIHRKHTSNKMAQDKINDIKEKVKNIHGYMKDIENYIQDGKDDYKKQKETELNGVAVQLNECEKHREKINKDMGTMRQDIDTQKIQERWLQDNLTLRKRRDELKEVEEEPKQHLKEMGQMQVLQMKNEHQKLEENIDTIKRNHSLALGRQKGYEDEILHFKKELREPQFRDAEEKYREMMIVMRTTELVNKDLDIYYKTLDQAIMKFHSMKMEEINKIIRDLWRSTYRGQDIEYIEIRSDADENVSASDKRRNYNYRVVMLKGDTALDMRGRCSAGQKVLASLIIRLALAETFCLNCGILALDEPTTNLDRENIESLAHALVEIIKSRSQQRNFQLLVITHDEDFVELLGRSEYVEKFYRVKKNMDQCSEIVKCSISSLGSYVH
As to the kind of experiment: Crosslinking/co-immunoprecipitation/mass spectrometry (TMT quantitative proteomics) to identify irisin receptors. Particulars: co-precipitated protein Rad50 (RAD50_MOUSE). Type of experiment: binding. An outline of the steps: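 Relative protein abundance came from 6-plex TMT MS3 quantitation on an Orbitrap Fusion Lumos, after in-gel trypsin digestion of Coomassie-stained SDS-PAGE lanes. Input was a Ni-NTA pulldown (250 mM imidazole elution) of lysates from murine MLO-Y4 cells. These cells were treated on ice with His-tagged irisin or adipsin (10 nM, 20 min) in serum-free medium, then crosslinked with 1.5 mM DTSSP for 30 min.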

For the substance adipsin, the TMT signal-to-noise ratio was 422.246.
